Columns and labels:
[1] = target: ATP-binding cassette sub-family C member 2 (Homo sapiens, UniProt Q92887); assay: (§1) TP_TRANSPORTER: uptake in bile canalicular membrane vesicles; format: functional, cell membranes, Bile canalicular membrane vesicle
[2] = substrate: CNc1nc2c(Cc3cccnc3)c(C)c(O[C@@H]3O[C@H](C(=O)O)[C@@H](O)[C@H](O)[C@H]3O)c(C)c2s1; assay: as §1; format: functional, cell membranes, Homo sapiens, Bile canalicular membrane vesicle
[3] = substrate: N[C@@H](CCC(=O)N[C@H](CSc1ccc([N+](=O)[O-])cc1[N+](=O)[O-])C(=O)NCC(=O)O)C(=O)O; assay: as §1; format: functional, cell membranes, Homo sapiens, Bile canalicular membrane vesicle

Molecule | Activity [1] | Km [2] [µM] | Km [3] [µM]
Cc1c(F)c(N2CCNC(C)C2)cc2c1c(=O)c(C(=O)O[C@@H]1O[C@H](C(=O)O)[C@@H](O)[C@H](O)[C@H]1O)cn2C1CC1 (stereo partly drawn) [GREPAFLOXACIN GLUCURONIDE] | substrate [+] | – | –
ATP-binding cassette sub-family C member 2 (Homo sapiens) (protein) MLEKFCNSTFWNSSFLDSPEADLPLCFEQTVLVWIPLGYLWLLAPWQLLHVYKSRTKRSSTTKLYLAKQVFVGFLLILAAIELALVLTEDSGQATVPAVRYTNPSLYLGTWLLVLLIQYSRQWCVQKNSWFLSLFWILSILCGTFQFQTLIRTLLQGDNSNLAYSCLFFISYGFQILILIFSAFSENNESSNNPSSIASFLSSITYSWYDSIILKGYKRPLTLEDVWEVDEEMKTKTLVSKFETHMKRELQKARRALQRRQEKSSQQNSGARLPGLNKNQSQSQDALVLEDVEKKKKKSGTKKDVPKSWLMKALFKTFYMVLLKSFLLKLVNDIFTFVSPQLLKLLISFASDRDTYLWIGYLCAILLFTAALIQSFCLQCYFQLCFKLGVKVRTAIMASVYKKALTLSNLARKEYTVGETVNLMSVDAQKLMDVTNFMHMLWSSVLQIVLSIFFLWRELGPSVLAGVGVMVLVIPINAILSTKSKTIQVKNMKNKDKRLKIMNEILSGIKILKYFAWEPSFRDQVQNLRKKELKNLLAFSQLQCVVIFVFQLTPVLVSVVTFSVYVLVDSNNILDAQKAFTSITLFNILRFPLSMLPMMISSMLQASVSTERLEKYLGGDDLDTSAIRHDCNFDKAMQFSEASFTWEHDSEATVRDVNLDIMAGQLVAVIGPVGSGKSSLISAMLGEMENVHGHITIKGTTAYVPQQSWIQNGTIKDNILFGTEFNEKRYQQVLEACALLPDLEMLPGGDLAEIGEKGINLSGGQKQRISLARATYQNLDIYLLDDPLSAVDAHVGKHIFNKVLGPNGLLKGKTRLLVTHSMHFLPQVDEIVVLGNGTIVEKGSYSALLAKKGEFAKNLKTFLRHTGPEEEATVHDGSEEEDDDYGLISSVEEIPEDAASITMRRENSFRRTLSRSSRSNGRHLKSLRNSLKTRNVNSLKEDEELVKGQKLIKKEFIETGKVKFSIYLEYLQAIGLFSIFFIILAFVMNSVAFIGSNLWLSAWTSDSKIFNSTDYPASQRDMRVGVYGALGLAQGIFVFIAHFWSAFGFVHASNILHKQLLNNILRAPMRFFDTTPTGRIVNRFAGDISTVDDTLPQSLRSWITCFLGIISTLVMICMATPVFTIIVIPLGIIYVSVQMFYVSTSRQLRRLDSVTRSPIYSHFSETVSGLPVIRAFEHQQRFLKHNEVRIDTNQKCVFSWITSNRWLAIRLELVGNLTVFFSALMMVIYRDTLSGDTVGFVLSNALNITQTLNWLVRMTSEIETNIVAVERITEYTKVENEAPWVTDKRPPPDWPSKGKIQFNNYQVRYRPELDLVLRGITCDIGSMEKIGVVGRTGAGKSSLTNCLFRILEAAGGQIIIDGVDIASIGLHDLREKLTIIPQDPILFSGSLRMNLDPFNNYSDEEIWKALELAHLKSFVASLQLGLSHEVTEAGGNLSIGQRQLLCLGRALLRKSKILVLDEATAAVDLETDNLIQTTIQNEFAHCTVITIAHRLHTIMDSDKVMVLDNGKIIECGSPEELLQIPGPFYFMAKEAGIENVNSTKF | – | 14.1 | 193
